Source: the RNAGym collection of RNA variant scans (doi:10.1073/pnas.2313332121)

B1: TPR t1 (parent)
chain: GACCAAUCUGCCCUCAGAGCUCGAGAACAUCUUCGGAUGCAGAGGAGGCAGGCUUCGGUGGCGCGAUAGCGCCAACGUCCUCAACCUCCAAUGCAUCCCACCACAUGAUGAUGCCUGAAGAGCCUUGGUUUUUUG

Variants of: B1
Assay: polymerase ribozyme fitness, log enrichment relative to wild type (log ratio); higher = more active; in vitro selection for triplet polymerase activity
How it was run: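 In triplicate, a single round of in vitro selection was run on each mutant library, PCR-built and transcribed, covering one subunit of a heterodimeric triplet polymerase ribozyme. Frozen incubation at −7 °C followed annealing with a biotinylated primer, partner subunit and triplets, and extended constructs were then gel-excised, streptavidin-captured and taken through RT-PCR. Fitness is the logarithm of genotype enrichment over wild-type enrichment, from inverse-variance-weighted replicate averages of Illumina-sequenced inputs and outputs. […] only genotypes with ≥10 input reads and ≥1 read per output were kept.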

| Variant | polymerase ribozyme fitness (log ratio) |
| --- | --- |
| C12U G52A U78A | -0.0318 |
| C13G A18U A27G C53U C89A C104U | -5.29 |
| C13A G120C | -0.417 |
| C12U U125A | 0.114 |
| C12U U32C C56G | -0.144 |
| C13G A111G C115U | -4.46 |
| C13A G36C C64U C80U U112G G117A | -6.43 |
| C13A C79G C123A U129G | -3.45 |
| C13G A37G C53G G110U G113A | -5 |
| C13G A118U | -1.02 |
| C13A C20U | -3.77 |
| C13A C22G G69U G120U | -1.67 |
| C12U U33G | -5.61 |
| C13A C64U C115A | -2.72 |
| C13G A74U | -2.54 |
| C12U G47U G63A U129A | -3.16 |
| C13A G17C C72U C88U A121G | -2.21 |
| C13A U38G G58U | -2.03 |
| C12U U38C G42U G61A U96A G122U | -4.37 |
| C13A A105U | -3.91 |
| C12U U78C | -0.312 |
| C13A C73A | -1.36 |
| C13G A16U C56U A105G A111C | -4.91 |
| C13A U112A G120C | -0.261 |

| Variant | polymerase ribozyme fitness (log ratio) |
| --- | --- |
| C12U U87C A103U G120A | -1.81 |
| C12U G51A G120A G127C G128U | -1.84 |
| C13A C82G | -1.93 |
| C13A C82U | -1.59 |
| C13G A50G U106A C124A G127U | 1.19 |
| C13G C56U U112C | 0.0684 |
| C13G A29C U54A A105C U106A | -3.03 |
| C13A G69C | -3.15 |
| C13A G69U | -1.23 |
| C13A G69A | -3.52 |
| C13A C49G G122U C124G | -0.569 |
| C13G C49A G60A C64U U96A U106G G110A U132C | -6.52 |
| C13G C53G | -1.53 |
| C12U G52A C86U C97A | -4.13 |
| C13G C34A G39A | -5 |
| C13A U14A U54A | -2.73 |
| C12U G39C U78A | 0.181 |
| C12U G39A C56A G71A | -4.31 |
| C13A G60A C102U A118C G120U | -2.89 |
| C13G A43U C76U | -1.01 |
| C13A U78C | -1.78 |
| C13G C53A C82A | -2.24 |
| C12U G45A G51U | -3.98 |
| C12U G47U C85G A111C | -2.51 |

| Variant | polymerase ribozyme fitness (log ratio) |
| --- | --- |
| C13A A46U U106C | -2.81 |
| C13G C64U A83U A95C G110A G120U | -3.89 |
| C13G C40U C49A | -2.42 |
| C12U G45U G57A G60A U116G | -1.77 |
| C13G A46C U78C C86A | -4.39 |
| C13A A108G | -5.35 |
| C13G A95G U112C C124U | 1.05 |
| C13A C22A C31A A46U G71A G120A | -6.56 |
| C13G C70U | -1.62 |
| C13A G48A G69A C114U U129A | -6.99 |
| C12U G61C A119U | -1.74 |
| C13G A26G | -3.54 |
| C13G C40G C85G C89G C123G | -4.99 |
| C12U G44U U55C | -0.924 |
| C13A C53U C114U G120A | -3.61 |
| C13G A105U U112C | -2.47 |
| C12U G42A C97U | -3.11 |
| C12U G44A C88U U92G U112A U116G G135A | -5.19 |
| C12U G60C C123G | 1.46 |
| C13A A18C C94G C114U | -5.11 |
| C13A A27U C101U | -4.94 |
| C13A C28U | -3.53 |
| C13A A24U G63C A83U A84C G120U G122A U125A | -6.79 |
| C13A A43G G110A C124G G128A | -6.67 |

| Variant | polymerase ribozyme fitness (log ratio) |
| --- | --- |
| C13A C72U U92C U133A | -3.18 |
| C13A G44C C124A | 0.459 |
| C12U G63U A75C | -0.74 |
| C13A A95G U109A | -6.28 |
| C12U G48U C49U G63C C94U G128C | -4.36 |
| C13G C56U C86U U130A | -3.33 |
| C13A C20U C40U C72A A83C G117U C124A | -4.4 |
| C13A C101A | -2.54 |
| C12U G71A U92G U96A | -5.06 |
| C13A C76U C82A A103U G110C C114A G117C C123U | -7 |
| C13G C56U C85A | -3.69 |
| C13A A37C C73U A118U | -1.72 |
| C13G A27U G47U G63A U78A | -6.63 |
| C13A U21A A29U | -4.11 |
| C13G A41U | -3.04 |
| C12U G39U G61C C88G | -3.48 |
| C12U G48C G63U U130C | -1 |
| C13A A18C G36A G42U A84C | -4.45 |
| C13A U87A G113A | -2.16 |
| C13A A43G | -3.45 |
| C13A C49U C53G G61U | -3.09 |
| C13A G42U | -3.39 |
| C13A U21C A50U C98U U106A C115U | -6.68 |
| C12U U125A U126C | -0.829 |

| Variant | polymerase ribozyme fitness (log ratio) |
| --- | --- |
| C13A A37G | -2.27 |
| C13A U33G C124G | -4.34 |
| C12U G42A G61A G110A | -4.38 |
| C13G A26G C70U C99U A119U | -4.5 |
| C13A G17U | -4.98 |
| C13A C102A | -3.7 |
| C13A C101U G113A | -2.95 |
| C12U U33G C123G | -4.3 |
| C12U G63A | -0.293 |
| C12U G63C | -0.399 |
| C12U G47U | -0.627 |
| C13A G93U C98U | -4.03 |
| C13A G52U U54C C70U C124U | -1.03 |
| C13G A41G G48U U78G A91C | -5.06 |
| C13A G93C | -2.4 |
| C12U G47U G120U | 0.786 |
| C13A A50C G52U G93C | -4.43 |
| C12U G48A C49G G51A U112A C123A | 0.0276 |
| C13A A41C C73G | -4.43 |
| C12U G44A U131A | -1.07 |
| C12U G42A G128C U131G | -4.81 |
| C13A A103U U109A U125A U131G | -6.73 |
| C13A C40A G71A | -4.02 |
| C12U U81G | -2.24 |

| Variant | polymerase ribozyme fitness (log ratio) |
| --- | --- |
| C13A C40U C49G C88A | -3.8 |
| C12U G42U C49G U96C | -2.37 |
| C13G A18U A27G C53U C70U C89A C104U | -5.81 |
| C12U G47A U87C | -0.382 |
| C13A G61U | -1.08 |
| C13G C49A | -1.26 |
| C13A C40A G52A C56U | -2.98 |
| C12U G93A | -0.0469 |
| C12U G93U | -0.871 |
| C13A C15A G47A C123U G127C | -3.95 |
| C12U G45U C82G C97G | -5.36 |
| C12U U116A | -1.04 |
| C13G A16G U21A A29C A43U G69U C82G C114U | -4.09 |
| C12U U92C | -1.15 |
| C12U G110A | 0.122 |
| C12U G110C | -2.23 |
| C12U U14C C15G A41C U112A | -2.25 |
| C13A A46C C64U U112C | -1.16 |
| C13G A41U G117C | -5.86 |
| C13G C28U C101U | -4.7 |
| C12U U112A | 1.23 |
| C13G A90G | -1.86 |
| C13A C53U G120U | -1.1 |
| C13A G60U C86U | -2.73 |

| Variant | polymerase ribozyme fitness (log ratio) |
| --- | --- |
| C13A C85U C102U | -4.16 |
| C13A G39U G69U U109A | -5.33 |
| C12U G61A | 0.126 |
| C13A C56G C73U G77U | -1.96 |
| C13A U21G G63A | -4.73 |
| C13G C56G | -2.09 |
| C13G C53U G113A G128U | -5.15 |
| C13G C64U C73A G120A A121U | -0.317 |
| C13A C15U G51A C94U | -5.17 |
| C12U G36U C104U C123G | 0.937 |
| C13G A119U C123U | 1.58 |
| C12U G51A | -2.09 |
| C12U G113A | 0.642 |
| C12U G113U | -1.65 |
| C13A G110A | -1.4 |
| C13G C40A G63A | -4.13 |
| C12U G48A | -0.765 |
| C13A A26G C53U C104U | -5.09 |
| C12U G113C G120U | -3.12 |
| C12U G57A G63A G113C | -5.3 |
| C13A C49G | -1.06 |
| C13A C49U | -1.33 |
| C13A U55C G58A G63A | -3.2 |
